Test results from paper PMC6820730 (2019).
No end group written: not given here.

Molecular target: AVPR1a (Homo sapiens, UniProt P37288)
Assay: 125I-OVTA competition binding, intact CHO cells

AVPR1a, sequence (P37288 whole entry): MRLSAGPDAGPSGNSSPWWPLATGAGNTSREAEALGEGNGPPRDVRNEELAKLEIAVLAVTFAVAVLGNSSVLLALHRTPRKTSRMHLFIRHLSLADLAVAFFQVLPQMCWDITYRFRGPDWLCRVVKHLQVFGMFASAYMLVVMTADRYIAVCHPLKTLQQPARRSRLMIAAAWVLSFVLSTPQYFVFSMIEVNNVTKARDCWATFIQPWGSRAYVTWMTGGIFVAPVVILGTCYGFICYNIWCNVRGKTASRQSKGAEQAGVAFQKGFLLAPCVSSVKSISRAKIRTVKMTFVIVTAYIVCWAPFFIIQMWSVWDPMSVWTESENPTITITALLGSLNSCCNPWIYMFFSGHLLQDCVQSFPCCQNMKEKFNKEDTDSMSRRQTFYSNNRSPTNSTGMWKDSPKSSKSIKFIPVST

Ki: 8.71 nM
Binder: CYIQNCPPG (not fully specified; cysteine pairing not given here) [Pro8-OXT]
